According to the DeepSol protein solubility set:

Assay: soluble on expression in E. coli; label from the status in PepcDB or PDB records

Sequence	soluble on expression in E. coli
MSLKHRIEYAITNAVFVKADELSYLSFRVSGKVIEVYKDLGDYVKRGEALAKLDPTYYELEKRTLEKKMSALLEKKKALEIKIQKLEKGLHISLSAKKLKVESLKKKREALREKLLQVEEKIKLVKLDWERYKSLFQKGLIPRRKFEEVDTNLKVLLHEREYLEKSIQEINTEIKRAKKGIENARNEFKTIEELKKELSSLEEEIKSLKERIKTAEQKIKDTVLIAPFDGVVAKRFISRGDVVRAGQPAFALVNPESFYVEVLLEETKLKGVKVGNKAYVRLDAYPDILFEGVVEEISPASAATFALVPRDVSAGEFTKVVQRIPVKIKITKGDLSLLRVGMGGEVEIRRTREGHHHHHH	soluble
SLDLFISRHLEQLNSLSFKATPLFEHKAQFYAAPSYLEKYGTPQNVEELTKHNILIWGEKPAREIKTNRGKRMSLSGNFATTNPEALFHGAKRGMGILMTNNVMIKDDLKSGALVPILPDVTADEATVYAYYPKLDYQHTRTQLFLDYLKSRLEEEKRI	not soluble
MSLNLNVLEIKSFVPAQDFTTSKQFYLSLGFELITEFGDVAYLRLGQCAFLLQNTHQRPHQGNTMMHLLVEDAQSWFDHVKTLQLEERFESKVTDLITQPWGMLEFCLVDPSDVLWRIGQRIGEGHHHHTTDPNSSSVDKLAAALEHHHHHH	soluble
MIILDNSIQTKKRTDSLSKLITVNTLGPEGTSSEYAAKHFISNFTLLQGLNSKLSLHDTFESCIERTLQSPLEYTIVPHAYDGIKHFYMRPDLQLLQIFRCDTPMYGLAVRPDFEFRDDMLDTSVIVSHPSPINLIKYFTRKDVRFKLVNSTSQAARKVKEGLYDIALTNELARQKYGLTFVKTFKSIPMSWSLFGKGDVDDENLEHHHHHH	not soluble
MAHHHHHHMPMILNEGWNIIQINLQEYTEKAFRTKYMETMDIQINASIRIRCIYFCDKLYNNDELKDEYKIFSKKKEKIKYTPPQCLNKPLKKMTIKSIITEGVSKGGENLPTEVEANKATTENEILEDSSTSGNSKKTDVEPTSQKNLQSIDMTEGIELYEESTDDPFFDEKNDGEGTPLAQVIGGEELLVGGEESTEVANNMTMDLTENTVTGTMNGPMKDQQDAEEAEHLAHIKTLEMDDTNVLYEDVNYETYNNDDH	soluble
SLASPKRWTTNGLSTNQTLCYTLGEGQPSPFFYLRSARKMPQSVEQHIAAITDRIKDFVRFLDREEVAPVLAELREMFARELRATEGFASHERELHDRIRHESDYEQLRAIHDELNVLEMERFLAISSVSALHANCTEYRDILADRALALAEDEMEHDGRGRAPCPYALCSMGSDGREEQTLITDQDYLIVYGDGGGEAADEWFREFSELIVERLAQIGFKKCTGDIMPSNPTWRGSLSQWRRKLLAIVRYEYEDYAKNLMDLIVISDARHVAGDRDLAATLIATIRALEKDYFQVLWGMAKAATEMKLALGFLKRLWTEGSGEHKGEFNLKLLAWAPLVMNVRILAINQGVPATNTVKRIEHLAREGSFSPSFANGLVEAYEVLTRHRILLQIKVIKGIQKSSYYLNPYTLPAEEREAIRQALLRIEDLQRTIHTNFSIM	not soluble
MKQRILIVGAGFAGMWSALSAVRQLDRQGRDDVEVAVLAPQPELRIRPRFYEPDVQRMAAPLGELFAAVGVRFVQGSAQRIDVAGKRVEYRDAEGTLAQLDYDRLVLAAGSGVWRPASVAGIDAAFDVDQLEDALRLEAHLHALRDLPDSPARNTVVVAGGGFTGIETATEMPARLRAILGEKAALRVIVVDRGAAIGASMGADLSGLIAEASAELGVEWCLGRSVAAVDAEGVTLDDGQRIEAKTVVWTVGVRASTLTGQIPGERDAQGRLHVDRNLKVLGLDDVYATGDVARAATDDLGNHALMTCQHAIALGRSAGNNVAADLLGVEPIPYSQVKYVTCLDLGGWGAVFTEGWDRQVRFVREEGKKIKTEINGVWIYPPAADRAVALAAADPLIPVVALEHHHHHH	soluble
MSLPPKFWIIIIVKKIDQQSLENAYRLFESGDIHQIEIGSTKGLQQIHHYLFNGLYEFAGKIREQNISKGHFRFANALYLKEALGKIEQMPEDTFENIINKYVEMNIAHPFLEGNGRSTRIWLDLVLKKHLGKVVNWQNVDKTQYLQAMERSPINDLEIRFLLQANLTDDVNNREIIFKGIEQSYYYEGYEKEEGGSHHHHHH	soluble
MSLNSSEHKIRITPLGGLGEIGGNISVFETNKDAIIVDIGMSFPDGTMHGVDIIIPDFDYVRKIKDKIRGIVITHAHEDHIGAVPYFFKEFQFPIYATPLALGMISNKFEEHGLKAERKWFRPVEKRRVYEIGEFDIEWIHITHSIIDASALAIKTKAGTIIHTGDFKIDQTPIDGYPTDLGRLAYYGEEGVLCLLSDSTNSYKEGYTKSESSVGLTFDQIFARTKGRVIMSTFSSNIHRVYQAITYGLKYGRKVCVIGRSMERNLYTTMELGYIKLDRKIFIDADEVSKYKDNEVLIVTTGSQGETMSALYRMATDEHKFIKIKPTDQVIISAKAIPGNEASVSAVLDYLLKAGAKVAYQEFSEIHVSGHASIEEQKLMLTLTKPKFFLPVHGEYNHITKHKETAMKCGIPERNIYLMSDGDQVELEGHHHHHH	soluble
SDSQSSILEENLEKILRGEGLEFDSVAEQVDPVTLRKNVCYIVGAVIFNSKEEVLMVQEAKRECYGRWYLPAGRMEECESILEALQREVREEAGIDCQPITLLLVQEQGPRWVRFIFLAEETGGSLKTTAEADDESLQAHWWDRKSPLPLRAHDILSLIDAGLKYRRNPWFPVTQPVDFPCHVVCQRLFLTFISSRADADDRLWLLMSNNNTSHHPRLPIVVSFRTYISKAVSKLIEDCMPSSYISVHIRGILGVQHNGRIPGKTDGICFNTLVLLENTEEGAEIGSPPSLETDCYRWQEVTNQGLKAKIIERIKDGSVLPFQSL	soluble
MKFLQKEELRTLLQSLDLQSGINNDWFLLLIAKTGMRYAEALALTPSDFDWVNATVTIDKSWDYKTHRGFKKTKSTASDREIAIDWQIVGQFKPLIQDLPANDPIFIEKTERGTYKKQYNSTMNNYLEAKCKTLTITVISLHALRHTHASVLLAEGVSIHTISARLGHADVGVTQEIYAHVLDELQKKDDQKMMSVLMQIALEHHHHHH	soluble
MGSDKIHHHHHHMHTELNHVMPWRIEDIDLTRIDRQKAVANEDLLLLLCASSFIESGSDLYTANLSTFFNGDPEVSAWLNQEWEPEELQHGRALKTYIAYVWPEFDWDTAFRNFMEEYSLTCSVEDFEKTRALEMVARCVVETGTATLYRAIGECSDEPVLKQITDNIRTDEVRHYKHFFKYFKKYNKIEGNGRLAVLGALMRRVMEIKNEDSEIALRHVFAVRYPERVHDSAYNRERAARINALVRRNLSADMCVKMLLKPLDLPARIQPGVHYPLAKITQHVFFR	not soluble
MAHHHHHHMPPKGFKSNVSPEEAIAARKEKVELLSQQCAAVEKMLSICTDQGLRLNAEIAELERRIAETEVLTEQASRDLDVTVKIVTSYATSNLDQLQQRRLNMEKTAHEAEAENEALRAKIAELTGRREAEIEQWEARVEEQQALMNQKALDFGMQLKETLARRYATV	not soluble
MSEYNPCLDCGACCGYFRVSFFWGECQSAGGVVPDDLVVQINPTRVAMIGTDAKPCRCVSLQGEIGKEVACTIYANRSSPCREFDASWEGGVHNPSCDDARAAYGLPPLTPPEANEPHWPDDGAEVALEHHHHHH	soluble
MVPQTGRAARATRESGRQTRDALFTAATELFLEHGEGVPITQICAAAGAHPNQVTYYYGSKERLFVEVACAAVLRAGKRAEDDAATAETVGDYTEKLVGSLLGPGAPSVELFTSAMLMTGRRSELRDLITDTLRTLHSSGEVALIRTLMRTGWQLRAGIDVESKAFWSAIFGLVIQKTATGESFGYSLEEAVAVIFANLQIPETVRNTSID	soluble
MAHHHHHHMAVLIKNNEASLVDMAVQDFIKLGIDGVYTTMKTVVSFEYIFNFTSHMRNLHKYSTNFLELQINGHNKECVTNILQNLTLENIRKSTSTSIKAGFEFINTLNDDIKKKYFSENLNYMVMVTITWDIHTDNRIPSNEPFSILCYIKCLPKHSNNVQIDIMCGERKTPNIKYSNVFDVRNKMLKLKSEDSHEVVLYNEKEEITEGLTCNFFCFFNDTLYTAKDELVLKGTMREQIIQICEEVGITLKRKVST	not soluble
MSLGSPKSVRIVVVGDKGTGKSSLIVAAATDSFPPNVPPVLPDYKLPIEFFPDGIPVTIVDTSSRPEDRDIVAEELKRADAVVLTYACDRPETLERLSEYWLPELRRLEVKIPIIVAGCKLDFRDDNNQVSLEQVMSPIMQQFREIETCIECSALKQLQAQEVFYYAQKTVLHPTGPLFDQEGHHHHHH	soluble
MGSDKIHHHHHHMNTRNDNSKILEIYKMKLFGELVKAVWNDDIEDIENLPNKILNEDLKDNLNNYFSGKFDKDTMVNLIRVTMGLDVTEDTDKNLKESLHEAVNLDEVKRPIISVISDACKYCDENNKEDESCKIRSKHINCNEEDVCSACGDCVSRCKLGAISDKIEFIPMIKLLKDIKSPVYAIVAPAFVGQFGKDVSPGKLRTALKKIGFEDMIEVALAADMLTAKEAYDYYEHMKKDEEGCFITSCCCPIWVSLIQNSFPQILENVSPSVSPMIACGRAVKILNPDAKVVFIGPCMAKKKEAMLEDIKDAVDFVLTFKELQEIFDALELNPAIMDESNRVEASLSGRVYARTGGVSKAVKLSVRRIDKNIKFEEKAFEGTKECMDGLKKVLNKEIEATFIEGMGCVGGCVGGPKRILSVEEGTKNVDEYSESTNMETPFDNLNVLQFLTSLGIKRVESLGEKEEEKVKKIFSRDIKSNKKENKYKK	not soluble
MGSDKIHHHHHHMKVLNLLSAGGIGGIEQLCSNIAKYANYDNTFCFMFEDGQIYKEMKKSGADVISFAECSSKKISKKRWESLCELAEKADIIVTHHCTIALHIYYCALKKRFKNKKFVMTIHSCFDPELNYNYGSWIKNKIAKWNIEEALKISDKIIFVSEAGRRSYLDNFNIDVTKTKVIYNGVEVSAISIDSIKLENNYTRITYIGRVEKIKGLDLFVCALKKLLNDDSNIKVWIIGDGSFRNELEMLVQKLDLTGVIEFTGAKRNIGDYLRKTDLFIYPSTCQEVFGISIVEAMSYGVPCVANNVGGIPEIIENDYNGFITSKTNDDELYKCMYKFIKLDPKLITQMRNNCLLTAEKFSINCTIDNLEKTLKGMM	not soluble
MRPVLLLCCLFLSATAQAEDCSPQTSVGSWCELPLAALHPTQQNVGLLQVEDDQAKLAGKKPKALERYLRKKEIPVVIGPGGRFYLTDRHHLSSALWRLDPKQGVPVKVIGRLPQASDFWEKMQENHWVWLHDARGAEIPPEALPDALAGLGDDPYRALAGYAEDENAFDKDRQSYFIEFHWARYFGERMHWRPISRATLPDDLKQALRLACEPAARELPGYRQDCPHKLAAALEHHHHHH	not soluble
MDFLKQPCAPLDFDLSREQIEGMLRSARFIKGSFSTRVVGHLPIDNSFRQVSVAIENETSSSIEIMTLERGDTFCGIPLKQRKIPFQNSLKSADIDFTYDDSGIDLTNAPVSFFIEGGRVASICWHHKHRN	not soluble
MPTENELKIYLKRWDKKYGLTYKVLDILQTVFYRSDATREAFVEMCGDLDVQKLTFDSYLYKTVVPANPITQLKITAKTIGSLIRGNALAPLEHHHHHH	not soluble
MGSDKIHHHHHHMLLKSPDKSPEKILKLFDEVYSKARIFYLLRTAIDLNLFEYLSSFKTAKELAEILDADLILMEYMLKILNELDLIESKVVSERIYYKNAEITNIYLKKDSNYSIINPIYSYFENIKNWENLADILKNKSNCSNMDVDNFFPKVVRRMADECKCWELQKVLNYMAKYEEFKNAKKLLDLAGGHGLYAIGFSMLNRNLKCYVFDLPNVIEETKKFIKKYNAKNVFTITGDFYKDDIGKGYDIIFCSYNPGGKNPKIAEKVYNALNEGGLFINKQFFPDKEEGIEDYINNMEWNFSKPEGLKKGKIRYTFEGDLNLNDYLKYLEDLGFKILEVVDMSELLGLDENSSSFRKSANPSDSLRFKDNSPAKMIVAKKL	not soluble
